Laboratory results taken from article doi:10.1101/2021.08.18.456755.

How the values were obtained:
[1] = target: (His)6-tagged Pf-Ubc9 (Plasmodium falciparum); assay: pull-down
[2] = target: Hs-Ubc9 (human E2 conjugating enzyme Ubc9), untagged (human) (UniProt P63279); assay: ITC
[3] = target: Pf-Ubc9 (Plasmodium falciparum E2 conjugating enzyme), untagged (Plasmodium falciparum); assay: ITC
[4] = target: (His)6-tagged Hs-Ubc9 (human) (UniProt P63279); assay: pull-down
[5] = target: Hs-Ubc9 (human E2 conjugating enzyme Ubc9), untagged (human) (UniProt P63279)
[6] = target: Pf-SUMO D90A mutant, untagged (ITC, SPR, NMR) (Plasmodium falciparum); assay: SPR

Hs-SUMO1 as prepared for pull-down and SUMOylation assays (GST-tagged preparation) (from UniProt P63165 1-97) (natural protein)
relative binding affinity (quantified pull-down) [1]: 12%

Pf-SUMO (Plasmodium falciparum SUMO, mature form Pf-SUMO-GG), untagged (natural protein)
Kd [2]: 27.4 µM | Kd [3]: 4.05 µM

Pf-SUMO D68A mutant (pull-down preparation) (natural protein)
reduction of binding against Pf-SUMO wild type (quantified pull-down) [4]: 90%

Pf-SUMO D68K mutant (pull-down preparation) (natural protein)
reduction of binding against Pf-SUMO wild type (quantified pull-down) [4]: 90%

Pf-SUMO D90A mutant (pull-down preparation) (natural protein)
reduction of binding against Pf-SUMO wild type (quantified pull-down) [4]: 90%

Pf-SUMO D90A mutant, untagged (ITC, SPR, NMR) (natural protein)
Kd [3]: 2.5 µM | fold change of the dissociation constant against the wild type [5]: 4 fold

Pf-SUMO D90K mutant (pull-down preparation) (natural protein)
reduction of binding against Pf-SUMO wild type (quantified pull-down) [4]: 90%

Pf-SUMO wild type as prepared for pull-down and SUMOylation assays (GST-tagged preparation) (natural protein)
relative affinity (quantified pull-down) [4]: 67%

Pf-Ubc9 (Plasmodium falciparum E2 conjugating enzyme), untagged
Kd [6]: 3.02 µM
